Results on 4 molecules are retold here after patent publication US20250042994A1 (HAINAN SIMCERE ZAIMING PHARMACEUTICAL, published 2025).

As usually defined, the EC50 (read off the curve) is the concentration at which the effect is half-maximal. A higher EC50 (read off the curve) goes with a less potent agent.

In experiment [1] the target is T1, Human CD19-his protein (human, UniProt P15391 20-291).
T1 construct: bought protein; also called human CD19 protein; recombinant human CD19-His; not shown: His tag
T1 sequence (looked up): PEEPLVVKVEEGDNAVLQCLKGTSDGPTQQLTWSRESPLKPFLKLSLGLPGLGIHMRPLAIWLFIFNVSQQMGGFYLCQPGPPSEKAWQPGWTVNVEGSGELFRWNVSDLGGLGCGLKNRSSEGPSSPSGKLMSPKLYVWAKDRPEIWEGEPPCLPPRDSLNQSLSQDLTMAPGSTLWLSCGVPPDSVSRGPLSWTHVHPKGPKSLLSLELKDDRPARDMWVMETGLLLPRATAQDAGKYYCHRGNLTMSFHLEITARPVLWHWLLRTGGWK
The experiment in a line: ELISA on coated human CD19-His.

Experiment [2] concerns the target T2, human CD19 exon1-3-his protein (human, UniProt P15391 20-186, limits assumed).
T2 construct: made in HEK293E cells; also called membrane-distal end; not shown: His tag
T2 sequence (looked up): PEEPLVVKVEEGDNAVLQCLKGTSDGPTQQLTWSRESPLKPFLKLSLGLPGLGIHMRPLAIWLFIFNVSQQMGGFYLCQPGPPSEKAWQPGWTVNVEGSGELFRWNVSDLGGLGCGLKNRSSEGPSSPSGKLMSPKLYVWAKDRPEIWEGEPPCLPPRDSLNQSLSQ
The experiment in a line: ELISA, coated at 2 ug/mL.

The target of experiment [3] is T1, Human CD19-his protein. The experiment in a line: ELISA, antibody at 10 nM.
For experiment [4], the target named is T1, Human CD19-his protein. Put plainly: ELISA, antibody at 1.00 nM. On the technique in general: In an ELISA, binding on a coated surface is turned into a signal by an enzyme label.
Experiment [5] deals with T1, Human CD19-his protein. The experiment in a line: ELISA, antibody at 0.001 nM.
Experiment [6] addresses T1, Human CD19-his protein. Put plainly: ELISA, antibody at 100 nM.
The target of experiment [7] is T1, Human CD19-his protein. Put plainly: ELISA, antibody at 0.0001 nM.
Experiment [8] deals with T1, Human CD19-his protein. Put plainly: ELISA, antibody at 0.01 nM.
The target in a further experiment is T3, murine CD19 protein (murine, UniProt P25918 17-287, limits assumed).
T3 construct: bought protein; also called commercial murine CD19
T3 sequence (looked up): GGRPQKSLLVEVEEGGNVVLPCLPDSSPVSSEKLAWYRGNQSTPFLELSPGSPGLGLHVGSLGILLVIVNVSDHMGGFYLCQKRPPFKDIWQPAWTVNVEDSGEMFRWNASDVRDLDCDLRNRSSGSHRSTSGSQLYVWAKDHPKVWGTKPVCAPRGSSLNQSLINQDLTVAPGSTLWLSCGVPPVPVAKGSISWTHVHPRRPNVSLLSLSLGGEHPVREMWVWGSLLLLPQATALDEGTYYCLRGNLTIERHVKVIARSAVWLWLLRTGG
Put plainly: ELISA, coated murine CD19. A digest of the protocol: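 Plates coated overnight at 4° C with recombinant murine or monkey CD19 and blocked with 2% BSA. Chimeric antibodies, serially diluted from 100 nM, bound for 2 h at 37° C. TMB development for 10 min with OD450 read-out.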

Experiment [9] concerns the target T1, Human CD19-his protein. Put plainly: ELISA, antibody at 0.10 nM.

B1: F4.48.12 (antibody, human IgG1, V domains shown)
VH: QMQLKESGPGLVAPSQSLSITCTVSGFSLTDYGVSWIRQPPGKGLEWLGVIWGSGSTFYNSALTSRLSISKDNSKSQVFLKMNSLQTADTAMYFCAKHHYYGGSFAMDYWGQGTSVTVSS
VL: DIQMTQASSSLSASLGDRVTISCKTSQDISNYLNWYQQKPDGTFKLLIHYTSRLHSGVPSRFSGSGSGSDYSLTISNLEREDIATYFCQQGNSLPYTFGGGTKLEMK
notes: human-murine chimeric antibody, human IgG1
As for B1, the “EC50 (read off the curve)” value with Human CD19-his protein [1] is around 0.03 nM. The binding result (in experiment [2]; with murine CD19 protein) was “no binding” throughout. For the same molecule, the OD450 in the experiment with Human CD19-his protein [3] amounted to 1.76; with Human CD19-his protein [4], 1.89; with Human CD19-his protein [5] it was 0.09; in the experiment with Human CD19-his protein [6], 1.93; with Human CD19-his protein [7], 0.06; with Human CD19-his protein [8] it was 0.38. The molecule also returned an OD450 with Human CD19-his protein [9] of 1.56.

B2: F4.22.6 (antibody, human IgG1, V domains shown)
VH: QVQLQQSGPELVKPGASVKISCKASGYAFSSFWMNWVKQRPGQGLEWIGRIYPGDGDTNYNGKFKGKATLTADKSSTTAYMHLSSLTSVDSAVYFCTRSVITAVVDWYFDVWGAGTTVTVSS
VL: QIVLSQSPAILSASPGEKVTLTCRASSSVNFMHWYQQKPGSSPKPWIYATSNLASGAPARFSGSGSGTSYSLTISRVEAEDAAAYYCQQWSSYPIFTFGSGTKLEIK
notes: as for B1
As for B2, the “EC50 (read off the curve)” value in the experiment with Human CD19-his protein [1] is around 0.05 nM. For the same molecule, the binding result (in experiment [2]; with murine CD19 protein) was “no binding” throughout. Further, the OD450 with Human CD19-his protein [3] came to 0.96; in the experiment with Human CD19-his protein [4], 0.83; in the experiment with Human CD19-his protein [5], 0.08; in the experiment with Human CD19-his protein [6], 0.88; in the experiment with Human CD19-his protein [7], 0.06; with Human CD19-his protein [8], 0.17. Moreover, the OD450 in the experiment with Human CD19-his protein [9] worked out at 0.62.

B3: F4.41.1 (antibody, human IgG1, V domains shown)
VH: QVQLQQSGAELVRPGTSVKVSCKASGYAFTNYLIEWVKQRPGQGLEWIGVINPGSGDTLYNEKFKGKATLTADKSSTTAYMQLSGLTSDVSAIYFCARSPPITTIVADYFDYWGQGTTLTVSS
VL: DIQMTQTTSSLSASLGDRVTISCRASQDISNYLNWYQQKPDGTVKLLIYYTSRLHSGVPSRFSGSGSGADYSLTISNLEQEDIATYFCQQGKTLPYTFGGGTKLEIK
notes: as for B1
With B3, the “EC50 (read off the curve)” value in the experiment with Human CD19-his protein [1] is around 0.5 nM. For the same molecule, the binding result (in [2]; with murine CD19 protein) was “no binding” each time. The OD450 with Human CD19-his protein [3] turned out to be 0.61; with Human CD19-his protein [4], 0.43; with Human CD19-his protein [5], 0.05; with Human CD19-his protein [6] it was 0.68; in the experiment with Human CD19-his protein [7], 0.05; with Human CD19-his protein [8], 0.07. Also, the OD450 with Human CD19-his protein [9] was 0.16.

B4: F4.33.12 (antibody, human IgG1, V domains shown)
VH: QVQLQQSGAELVRPGSSVKISCKGSGYAFSSYWMNWVKQRPGQGLEWIGQIYPGDGDTNYNGKFKGKATLTADKSSSTAYMQLSSLTSEDSAVYFCARAGFYYGSDSSMDYWGQGTSVTVSS
VL: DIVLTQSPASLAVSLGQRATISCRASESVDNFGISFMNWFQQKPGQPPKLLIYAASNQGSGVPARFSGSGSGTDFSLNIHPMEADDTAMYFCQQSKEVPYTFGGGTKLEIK
notes: as for B1
For B4, the “EC50 (read off the curve)” value in the experiment with Human CD19-his protein [1] is around 0.3 nM. The binding result (in [2]; in the experiment with murine CD19 protein) was “no binding” in each case. Also, the OD450 was determined as 1.72 with Human CD19-his protein [3]; 1.37 with Human CD19-his protein [4]; 0.06 in the experiment with Human CD19-his protein [5]; 1.64 with Human CD19-his protein [6]; 0.05 with Human CD19-his protein [7]; 0.11 in the experiment with Human CD19-his protein [8]. The same molecule came in with an OD450 with Human CD19-his protein [9] of 0.51.
